Results reported in article PMC5735850 (The Plant journal : for cell and molecular biology, 2017).

T1: AtFUT1 (Arabidopsis thaliana, UniProt Q9SWH5)
T1 sequence (Q9SWH5 84-558 limits assumed): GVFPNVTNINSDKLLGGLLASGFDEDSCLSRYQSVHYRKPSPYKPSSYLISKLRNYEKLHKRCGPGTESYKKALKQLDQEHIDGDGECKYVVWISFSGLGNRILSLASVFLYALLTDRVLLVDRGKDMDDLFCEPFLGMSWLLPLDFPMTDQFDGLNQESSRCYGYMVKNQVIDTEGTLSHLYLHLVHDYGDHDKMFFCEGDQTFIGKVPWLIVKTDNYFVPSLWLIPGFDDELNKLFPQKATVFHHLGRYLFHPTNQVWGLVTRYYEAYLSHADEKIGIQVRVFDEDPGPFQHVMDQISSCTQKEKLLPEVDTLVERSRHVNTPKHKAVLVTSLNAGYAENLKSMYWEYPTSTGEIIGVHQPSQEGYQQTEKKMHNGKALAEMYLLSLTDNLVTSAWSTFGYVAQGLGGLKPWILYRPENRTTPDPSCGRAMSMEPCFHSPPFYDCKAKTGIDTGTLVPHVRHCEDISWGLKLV

B1: AtFUT1 (Arabidopsis thaliana; Q452A) (protein)
chain: GVFPNVTNINSDKLLGGLLASGFDEDSCLSRYQSVHYRKPSPYKPSSYLISKLRNYEKLHKRCGPGTESYKKALKQLDQEHIDGDGECKYVVWISFSGLGNRILSLASVFLYALLTDRVLLVDRGKDMDDLFCEPFLGMSWLLPLDFPMTDQFDGLNQESSRCYGYMVKNQVIDTEGTLSHLYLHLVHDYGDHDKMFFCEGDQTFIGKVPWLIVKTDNYFVPSLWLIPGFDDELNKLFPQKATVFHHLGRYLFHPTNQVWGLVTRYYEAYLSHADEKIGIQVRVFDEDPGPFQHVMDQISSCTQKEKLLPEVDTLVERSRHVNTPKHKAVLVTSLNAGYAENLKSMYWEYPTSTGEIIGVHQPSQEGYAQTEKKMHNGKALAEMYLLSLTDNLVTSAWSTFGYVAQGLGGLKPWILYRPENRTTPDPSCGRAMSMEPCFHSPPFYDCKAKTGIDTGTLVPHVRHCEDISWGLKLV
B2: AtFUT1 (Arabidopsis thaliana; D300A) (protein)
chain: GVFPNVTNINSDKLLGGLLASGFDEDSCLSRYQSVHYRKPSPYKPSSYLISKLRNYEKLHKRCGPGTESYKKALKQLDQEHIDGDGECKYVVWISFSGLGNRILSLASVFLYALLTDRVLLVDRGKDMDDLFCEPFLGMSWLLPLDFPMTDQFDGLNQESSRCYGYMVKNQVIDTEGTLSHLYLHLVHDYGDHDKMFFCEGDQTFIGKVPWLIVKTANYFVPSLWLIPGFDDELNKLFPQKATVFHHLGRYLFHPTNQVWGLVTRYYEAYLSHADEKIGIQVRVFDEDPGPFQHVMDQISSCTQKEKLLPEVDTLVERSRHVNTPKHKAVLVTSLNAGYAENLKSMYWEYPTSTGEIIGVHQPSQEGYQQTEKKMHNGKALAEMYLLSLTDNLVTSAWSTFGYVAQGLGGLKPWILYRPENRTTPDPSCGRAMSMEPCFHSPPFYDCKAKTGIDTGTLVPHVRHCEDISWGLKLV
B3: AtFUT1 (Arabidopsis thaliana; H523A) (protein)
chain: GVFPNVTNINSDKLLGGLLASGFDEDSCLSRYQSVHYRKPSPYKPSSYLISKLRNYEKLHKRCGPGTESYKKALKQLDQEHIDGDGECKYVVWISFSGLGNRILSLASVFLYALLTDRVLLVDRGKDMDDLFCEPFLGMSWLLPLDFPMTDQFDGLNQESSRCYGYMVKNQVIDTEGTLSHLYLHLVHDYGDHDKMFFCEGDQTFIGKVPWLIVKTDNYFVPSLWLIPGFDDELNKLFPQKATVFHHLGRYLFHPTNQVWGLVTRYYEAYLSHADEKIGIQVRVFDEDPGPFQHVMDQISSCTQKEKLLPEVDTLVERSRHVNTPKHKAVLVTSLNAGYAENLKSMYWEYPTSTGEIIGVHQPSQEGYQQTEKKMHNGKALAEMYLLSLTDNLVTSAWSTFGYVAQGLGGLKPWILYRPENRTTPDPSCGRAMSMEPCFASPPFYDCKAKTGIDTGTLVPHVRHCEDISWGLKLV
B4: AtFUT1 (Arabidopsis thaliana) (protein)
chain: GVFPNVTNINSDKLLGGLLASGFDEDSCLSRYQSVHYRKPSPYKPSSYLISKLRNYEKLHKRCGPGTESYKKALKQLDQEHIDGDGECKYVVWISFSGLGNRILSLASVFLYALLTDRVLLVDRGKDMDDLFCEPFLGMSWLLPLDFPMTDQFDGLNQESSRCYGYMVKNQVIDTEGTLSHLYLHLVHDYGDHDKMFFCEGDQTFIGKVPWLIVKTDNYFVPSLWLIPGFDDELNKLFPQKATVFHHLGRYLFHPTNQVWGLVTRYYEAYLSHADEKIGIQVRVFDEDPGPFQHVMDQISSCTQKEKLLPEVDTLVERSRHVNTPKHKAVLVTSLNAGYAENLKSMYWEYPTSTGEIIGVHQPSQEGYQQTEKKMHNGKALAEMYLLSLTDNLVTSAWSTFGYVAQGLGGLKPWILYRPENRTTPDPSCGRAMSMEPCFHSPPFYDCKAKTGIDTGTLVPHVRHCEDISWGLKLV
B5: AtFUT1 (Arabidopsis thaliana; Y486F) (protein)
chain: GVFPNVTNINSDKLLGGLLASGFDEDSCLSRYQSVHYRKPSPYKPSSYLISKLRNYEKLHKRCGPGTESYKKALKQLDQEHIDGDGECKYVVWISFSGLGNRILSLASVFLYALLTDRVLLVDRGKDMDDLFCEPFLGMSWLLPLDFPMTDQFDGLNQESSRCYGYMVKNQVIDTEGTLSHLYLHLVHDYGDHDKMFFCEGDQTFIGKVPWLIVKTDNYFVPSLWLIPGFDDELNKLFPQKATVFHHLGRYLFHPTNQVWGLVTRYYEAYLSHADEKIGIQVRVFDEDPGPFQHVMDQISSCTQKEKLLPEVDTLVERSRHVNTPKHKAVLVTSLNAGYAENLKSMYWEYPTSTGEIIGVHQPSQEGYQQTEKKMHNGKALAEMYLLSLTDNLVTSAWSTFGFVAQGLGGLKPWILYRPENRTTPDPSCGRAMSMEPCFHSPPFYDCKAKTGIDTGTLVPHVRHCEDISWGLKLV
B6: AtFUT1 (Arabidopsis thaliana; D550A) (protein)
chain: GVFPNVTNINSDKLLGGLLASGFDEDSCLSRYQSVHYRKPSPYKPSSYLISKLRNYEKLHKRCGPGTESYKKALKQLDQEHIDGDGECKYVVWISFSGLGNRILSLASVFLYALLTDRVLLVDRGKDMDDLFCEPFLGMSWLLPLDFPMTDQFDGLNQESSRCYGYMVKNQVIDTEGTLSHLYLHLVHDYGDHDKMFFCEGDQTFIGKVPWLIVKTDNYFVPSLWLIPGFDDELNKLFPQKATVFHHLGRYLFHPTNQVWGLVTRYYEAYLSHADEKIGIQVRVFDEDPGPFQHVMDQISSCTQKEKLLPEVDTLVERSRHVNTPKHKAVLVTSLNAGYAENLKSMYWEYPTSTGEIIGVHQPSQEGYQQTEKKMHNGKALAEMYLLSLTDNLVTSAWSTFGYVAQGLGGLKPWILYRPENRTTPDPSCGRAMSMEPCFHSPPFYDCKAKTGIDTGTLVPHVRHCEAISWGLKLV

Substrate: C[C@@H]1O[C@H](OP(=O)(O)OP(=O)(O)OC[C@H]2O[C@@H](n3cnc4c(=O)[nH]c(N)nc43)[C@H](O)[C@@H]2O)[C@@H](O)[C@H](O)[C@@H]1O
Assay: GDP-Glo luminescent GDP release, Michaelis-Menten fit
Format: biochemical, Arabidopsis thaliana
Settings: donor varied, 750 μM XXLG, 75 mM HEPES pH 6.8, 28°C

| Molecule | Km | kcat [s⁻¹] |
| --- | --- | --- |
| B1 | 61.77 (±10.5) μM | 0.00533 ± 0.000283 |
| B2 | 40.1 (±7.5) μM | 0.00532 ± 0.000267 |
| B3 | 84.28 (±18.3) μM | 0.00123 ± 8.33e-05 |
| B4 | 25.32 (±4.2) μM | 0.0633 ± 0.000833 |
| B5 | 60.44 (±12.3) μM | 0.0016 ± 0.0001 |
| B6 | 55.33 (±6.7) μM | 0.00343 ± 0.000167 |

Target: T1, AtFUT1
Assay: real-time 1H NMR of fucosylation
Format: biochemical
Settings: 0.4 mM XLLG, 0.4 mM GDP-Fuc, 4.7 μM enzyme, pH 6.8 in D2O, 25°C

| Molecule | real-time 1H NMR of fucosylation |
| --- | --- |
| OC[C@H]1O[C@@H](O[C@H]2[C@@H](OC[C@H]3O[C@@H](O[C@H]4[C@H](O)[C@@H](O)[C@H](O[C@H]5[C@H](O)[C@@H](O)C(O)O[C@@H]5CO)O[C@@H]4CO[C@H]4OC[C@@H](O)[C@H](O)[C@H]4O[C@@H]4O[C@H](CO)[C@H](O)[C@H](O)[C@H]4O)[C@H](O)[C@@H](O)[C@@H]3O[C@@H]3O[C@H](CO[C@H]4OC[C@@H](O)[C@H](O)[C@H]4O)[C@@H](O)[C@H](O)[C@H]3O)OC[C@@H](O)[C@@H]2O)[C@H](O)[C@@H](O)[C@H]1O (stereo partly shown) [XLLG] | The xyloglucan oligosaccharide XLLG (Figure 1a), composed of nine glycosyl residues |
